Consider three molecules from patent US20240218393, “VECTORS ENCODING GENE EDITING SYSTEMS AND USES THEREOF” (Mammoth Biosciences, Inc., published 2024).

T1: CasM.19952
T1 chain: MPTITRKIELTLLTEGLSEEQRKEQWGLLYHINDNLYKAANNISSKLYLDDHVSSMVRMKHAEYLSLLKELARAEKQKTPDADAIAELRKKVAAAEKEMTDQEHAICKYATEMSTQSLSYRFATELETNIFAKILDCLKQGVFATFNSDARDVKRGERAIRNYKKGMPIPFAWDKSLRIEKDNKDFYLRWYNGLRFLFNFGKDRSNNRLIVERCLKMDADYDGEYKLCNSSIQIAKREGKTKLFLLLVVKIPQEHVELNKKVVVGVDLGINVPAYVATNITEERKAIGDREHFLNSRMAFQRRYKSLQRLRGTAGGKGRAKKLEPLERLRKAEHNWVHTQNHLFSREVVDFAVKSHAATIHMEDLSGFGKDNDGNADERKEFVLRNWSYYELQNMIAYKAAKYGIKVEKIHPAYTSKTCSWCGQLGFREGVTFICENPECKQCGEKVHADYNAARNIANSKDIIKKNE

B1: sgRNA SEQ 202 ; target of sgRNA SEQ 202 (protospacer) (ssRNA ; dsDNA)
RNA: UGGGGCAGUUGGUUGCCCUUAGCCUGAGGCAUUUAUUGCACUCGGGAAGUACCAUUUCUCAGAAAUGGUACAUCCAACUCUAGGCGCCCGCUAAGUUC
DNA 1: TCTAGGCGCCCGCTAAGTTC
DNA 2: GAACTTAGCGGGCGCCTAGA
B2: sgRNA SEQ 206 ; target of sgRNA SEQ 206 (protospacer) (ssRNA ; dsDNA)
RNA: UGGGGCAGUUGGUUGCCCUUAGCCUGAGGCAUUUAUUGCACUCGGGAAGUACCAUUUCUCAGAAAUGGUACAUCCAACGGGGGCGGGGGGGAGAAAAA
DNA 1: GGGGGCGGGGGGGAGAAAAA
DNA 2: TTTTTCTCCCCCCCGCCCCC
B3: sgRNA SEQ 204 ; target of sgRNA SEQ 204 (protospacer) (ssRNA ; dsDNA)
RNA: UGGGGCAGUUGGUUGCCCUUAGCCUGAGGCAUUUAUUGCACUCGGGAAGUACCAUUUCUCAGAAAUGGUACAUCCAACCGUGCUGUUUCCUCCCCACG
DNA 1: CGTGCTGTTTCCTCCCCACG
DNA 2: CGTGGGGAGGAAACAGCACG

For the series, the target named is T1, CasM.19952. Briefly: cell_activity; HEK293T, plasmid lipofection; PAM TCG or KYG (Table 1.1). As to conditions: tags: expressed from plasmid or scAAV. How it is done: CasM.19952 was tested for its ability to produce indels in HEK293T cells. Briefly, a plasmid encoding CasM.19952 and a guide RNA was delivered by lipofection to HEK293T cells. This was performed for a variety of guide RNAs targeting up to twenty-four loci adjacent to biochemically determined PAM sequences. Indels were detected by next generation sequencing of PCR amplicons at the targeted loci and indel percentage was calculated as the fraction of sequencing reads containing insertions or deletions relative to an unedited reference sequence. Sequencing libraries with less than 20% of reads aligning to the reference sequence were excluded from the analysis for quality control purposes. “No plasmid” and SpyCas9 were included as negative and positive controls, respectively. […] TABLE 8 describes the sequences of the single guide RNAs tested that provided the greatest percent of reads with indels. Non-bold, non-italicized, capital letters indicate the tracrRNA region of the guide RNA; italicized letters indicate a linker; bold letters indicate the repeat sequence; and the lowercase letters represent the spacer sequence.
In turn, B1 displayed an activity of 13.5 % indel reads.
With B2 the figure was 18.4 % indel reads.
In the case of B3, the activity amounted to 19.4 % indel reads.
